Reference: article PMC5109225

Experiments:
[1] = target: Bemisia tabaci B Cyclophilin B protein (Bemisia tabaci B (endogenous in whitefly adults))
[2] = target: Bemisia tabaci B Cyclophilin B protein (Bemisia tabaci B (endogenous in whitefly adults)); remark: listed apart in the source

## Tomato yellow leaf curl virus coat protein (in virions) (natural protein)
[1]
  TYLCV transmission rate to tomato test plants (one insect/plant) by whiteflies fed anti-CypB antibody (2 μg/μl in 25% sucrose, 24 h) before virus acquisition; control fed 25% sucrose: 60%: 17%
[2]
  TYLCV transmission rate to tomato test plants (one insect/plant) by whiteflies fed the Cyp inhibitor Cyclosporin A (2 μg/μl in 25% sucrose, 24 h) before virus acquisition; control fed 25% sucrose: 60%: 27%
